Data: paper PMC3513567 (Molecular cell, 2012)
Changes are numbered by the printed parent chain. Values belong to the molecule of their own block, whether it stands above or below them.

Assays:
[1] = molecular target: truncated murine LEP-R construct (D1-D5) lacking the two membrane-proximal FnIII domains (murine); experiment: ITC
[2] = molecular target: T1, extracellular region (domains D1-D7) of murine LEP-R (murine, UniProt P48356 22-839); experiment: ITC
T1 sequence (looked up): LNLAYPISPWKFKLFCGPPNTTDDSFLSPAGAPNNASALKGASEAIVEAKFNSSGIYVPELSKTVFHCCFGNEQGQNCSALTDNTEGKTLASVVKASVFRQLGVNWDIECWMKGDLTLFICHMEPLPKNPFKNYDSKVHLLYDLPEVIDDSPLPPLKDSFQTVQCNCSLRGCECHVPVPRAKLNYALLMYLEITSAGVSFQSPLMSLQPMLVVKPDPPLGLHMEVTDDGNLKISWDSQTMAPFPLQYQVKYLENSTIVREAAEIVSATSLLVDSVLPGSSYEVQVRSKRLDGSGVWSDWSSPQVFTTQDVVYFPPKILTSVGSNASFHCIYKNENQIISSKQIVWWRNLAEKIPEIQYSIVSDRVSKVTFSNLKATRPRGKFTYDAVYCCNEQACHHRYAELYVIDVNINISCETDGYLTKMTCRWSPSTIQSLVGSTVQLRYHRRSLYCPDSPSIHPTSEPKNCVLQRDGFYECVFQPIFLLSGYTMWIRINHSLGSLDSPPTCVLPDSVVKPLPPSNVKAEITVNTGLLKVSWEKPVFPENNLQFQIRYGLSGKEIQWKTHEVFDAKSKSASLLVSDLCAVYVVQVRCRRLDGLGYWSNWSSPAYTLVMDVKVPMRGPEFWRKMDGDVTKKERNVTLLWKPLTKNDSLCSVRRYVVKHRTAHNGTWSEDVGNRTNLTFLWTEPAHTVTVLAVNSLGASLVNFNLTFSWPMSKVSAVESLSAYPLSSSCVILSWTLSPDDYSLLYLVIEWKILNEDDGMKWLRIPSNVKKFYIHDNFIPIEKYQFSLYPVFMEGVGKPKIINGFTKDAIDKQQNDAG

[3] = molecular target: T2, LEP-R[D1-D7] construct bearing the IgD mutation L370A (murine, UniProt P48356 22-839, L370A); experiment: negative-stain single-particle electron microscopy
T2 sequence (looked up): T1 sequence (looked up) with L349A

truncated murine LEP-R construct (D1-D5) lacking the two membrane-proximal FnIII domains (murine), sequence (P48356 whole entry, the tested form may be a part): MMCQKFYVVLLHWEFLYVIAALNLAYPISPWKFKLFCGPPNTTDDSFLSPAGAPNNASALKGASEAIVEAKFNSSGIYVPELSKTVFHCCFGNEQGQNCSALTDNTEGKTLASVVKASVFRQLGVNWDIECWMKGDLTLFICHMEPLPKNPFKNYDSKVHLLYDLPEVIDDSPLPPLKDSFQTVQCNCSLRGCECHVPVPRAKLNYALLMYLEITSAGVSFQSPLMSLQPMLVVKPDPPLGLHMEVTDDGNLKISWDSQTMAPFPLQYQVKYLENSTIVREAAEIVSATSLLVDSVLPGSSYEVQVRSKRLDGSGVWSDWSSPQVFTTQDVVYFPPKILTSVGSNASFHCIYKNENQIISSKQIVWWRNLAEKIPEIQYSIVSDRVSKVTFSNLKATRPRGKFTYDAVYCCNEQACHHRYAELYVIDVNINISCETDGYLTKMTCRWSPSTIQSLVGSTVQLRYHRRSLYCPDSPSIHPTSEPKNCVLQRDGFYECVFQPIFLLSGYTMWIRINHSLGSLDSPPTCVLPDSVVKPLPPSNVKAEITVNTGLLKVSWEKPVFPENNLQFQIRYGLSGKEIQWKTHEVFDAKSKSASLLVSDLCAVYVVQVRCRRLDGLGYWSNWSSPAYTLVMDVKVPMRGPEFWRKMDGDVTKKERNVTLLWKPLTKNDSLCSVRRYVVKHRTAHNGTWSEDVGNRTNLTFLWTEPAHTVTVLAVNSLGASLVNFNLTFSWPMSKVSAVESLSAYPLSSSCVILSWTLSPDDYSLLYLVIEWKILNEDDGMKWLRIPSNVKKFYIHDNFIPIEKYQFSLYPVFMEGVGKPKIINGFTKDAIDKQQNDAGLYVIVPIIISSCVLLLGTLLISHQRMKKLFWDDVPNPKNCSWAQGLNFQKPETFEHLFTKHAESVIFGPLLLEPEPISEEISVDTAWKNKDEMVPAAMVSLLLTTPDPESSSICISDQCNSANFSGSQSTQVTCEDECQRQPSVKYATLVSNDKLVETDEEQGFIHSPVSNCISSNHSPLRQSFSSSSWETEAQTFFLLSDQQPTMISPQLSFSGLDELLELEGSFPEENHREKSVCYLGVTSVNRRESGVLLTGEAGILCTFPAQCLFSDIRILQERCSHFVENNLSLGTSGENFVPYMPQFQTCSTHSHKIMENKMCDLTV

Kd [1]: 0.017 µM
stoichiometry N (receptor:ligand) [1]: 1
Molecule: recombinant murine leptin (from UniProt P41160 22-167) (ligand)

stoichiometry N [2]: ~1 receptor:ligand
binding result [3]: binds
B1: recombinant murine leptin (ligand, UniProt P41160 22-167, looked up)
chain: VPIQKVQDDTKTLIKTIVTRINDISHTQSVSAKQRVTGLDFIPGLHPILSLSKMDQTLAVYQQVLTSLPSQNVLQIANDLENLRDLLHLLAFSKSCSLPQTSGLQKPESLDGVLEASLYSTEVVALSRLQGSLQDILQQLDVSPEC
